T1: EsCas13d, nuclease-dead (Eubacterium siraeum, UniProt B0MS50, R295A;H300A;R849A;H854A)
T1 sequence: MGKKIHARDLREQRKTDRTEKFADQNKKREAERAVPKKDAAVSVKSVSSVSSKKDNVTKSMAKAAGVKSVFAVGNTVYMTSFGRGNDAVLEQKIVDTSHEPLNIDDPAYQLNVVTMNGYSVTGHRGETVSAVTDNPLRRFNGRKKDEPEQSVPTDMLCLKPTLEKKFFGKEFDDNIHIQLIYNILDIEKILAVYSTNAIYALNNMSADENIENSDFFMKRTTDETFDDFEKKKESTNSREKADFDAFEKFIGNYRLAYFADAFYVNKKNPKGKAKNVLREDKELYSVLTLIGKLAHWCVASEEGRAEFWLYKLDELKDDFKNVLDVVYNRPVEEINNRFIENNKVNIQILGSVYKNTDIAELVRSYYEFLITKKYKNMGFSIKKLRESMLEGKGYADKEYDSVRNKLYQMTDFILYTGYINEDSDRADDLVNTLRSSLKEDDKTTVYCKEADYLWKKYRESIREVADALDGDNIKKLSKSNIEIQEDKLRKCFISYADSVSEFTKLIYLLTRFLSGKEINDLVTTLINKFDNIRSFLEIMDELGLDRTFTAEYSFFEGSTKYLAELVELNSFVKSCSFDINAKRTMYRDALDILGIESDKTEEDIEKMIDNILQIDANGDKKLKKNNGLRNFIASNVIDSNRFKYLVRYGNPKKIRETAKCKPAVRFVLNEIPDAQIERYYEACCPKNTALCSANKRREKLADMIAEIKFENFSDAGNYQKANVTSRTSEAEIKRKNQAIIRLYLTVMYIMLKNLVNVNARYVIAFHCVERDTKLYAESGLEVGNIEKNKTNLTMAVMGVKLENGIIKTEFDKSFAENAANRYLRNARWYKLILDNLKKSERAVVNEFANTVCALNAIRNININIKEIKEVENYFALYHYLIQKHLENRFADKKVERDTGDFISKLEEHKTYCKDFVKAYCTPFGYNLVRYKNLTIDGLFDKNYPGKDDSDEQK

B1: target 1 C6G,A9U (mixed)
RNA 1: CACCCGUGCAAAAAUGCAGGGGUCUAAAACUGAGCGGAUAACCUCUCUAUGG
RNA 2: GGGAAUGGAUCCACAUCUACGAAUUCGUACCAUAGAGAGGUUUUCGGCUCACCGAGAUCGGAAGAGCACACGU
B2: target 1 insA 3' of 15,insC 3' of 12 (mixed)
RNA 1: CACCCGUGCAAAAAUGCAGGGGUCUAAAACUGAGCGGAUAACCUCUCUAUGG
RNA 2: GGGAAUGGAUCCACAUCUACGAAUUCGUACCAUAGAGAAGGCUUAUCCGCUCACCGAGAUCGGAAGAGCACACGU
B3: target 1 A1C,G12C (mixed)
RNA 1: CACCCGUGCAAAAAUGCAGGGGUCUAAAACUGAGCGGAUAACCUCUCUAUGG
RNA 2: GGGAAUGGAUCCACAUCUACGAAUUCGUACCAUAGAGAGCUUAUCCGCUCCCCGAGAUCGGAAGAGCACACGU
B4: target 1 insC 3' of 22,insU 3' of 1 (mixed)
RNA 1: CACCCGUGCAAAAAUGCAGGGGUCUAAAACUGAGCGGAUAACCUCUCUAUGG
RNA 2: GGGAAUGGAUCCACAUCUACGAAUUCGUACCCAUAGAGAGGUUAUCCGCUCAUCCGAGAUCGGAAGAGCACACGU
B5: target 1 insA 3' of 7,insA 3' of 3 (mixed)
RNA 1: CACCCGUGCAAAAAUGCAGGGGUCUAAAACUGAGCGGAUAACCUCUCUAUGG
RNA 2: GGGAAUGGAUCCACAUCUACGAAUUCGUACCAUAGAGAGGUUAUCACGCUACACCGAGAUCGGAAGAGCACACGU
B6: target 1 insC 3' of 18,insU 3' of 7 (mixed)
RNA 1: CACCCGUGCAAAAAUGCAGGGGUCUAAAACUGAGCGGAUAACCUCUCUAUGG
RNA 2: GGGAAUGGAUCCACAUCUACGAAUUCGUACCAUACGAGAGGUUAUCUCGCUCACCGAGAUCGGAAGAGCACACGU
B7: target 1 insU 3' of 4,insC 3' of 3 (mixed)
RNA 1: CACCCGUGCAAAAAUGCAGGGGUCUAAAACUGAGCGGAUAACCUCUCUAUGG
RNA 2: GGGAAUGGAUCCACAUCUACGAAUUCGUACCAUAGAGAGGUUAUCCGCUUCCACCGAGAUCGGAAGAGCACACGU
B8: target 1 insU 3' of 15,insU 3' of 2 (mixed)
RNA 1: CACCCGUGCAAAAAUGCAGGGGUCUAAAACUGAGCGGAUAACCUCUCUAUGG
RNA 2: GGGAAUGGAUCCACAUCUACGAAUUCGUACCAUAGAGUAGGUUAUCCGCUCUACCGAGAUCGGAAGAGCACACGU
B9: target 1 insC 3' of 22,insG 3' of 1 (mixed)
RNA 1: CACCCGUGCAAAAAUGCAGGGGUCUAAAACUGAGCGGAUAACCUCUCUAUGG
RNA 2: GGGAAUGGAUCCACAUCUACGAAUUCGUACCCAUAGAGAGGUUAUCCGCUCAGCCGAGAUCGGAAGAGCACACGU
B10: target 1 insG 3' of 16,insU 3' of 9 (mixed)
RNA 1: CACCCGUGCAAAAAUGCAGGGGUCUAAAACUGAGCGGAUAACCUCUCUAUGG
RNA 2: GGGAAUGGAUCCACAUCUACGAAUUCGUACCAUAGAGGAGGUUAUUCCGCUCACCGAGAUCGGAAGAGCACACGU
B11: target 1 insG 3' of 18,insC 3' of 1 (mixed)
RNA 1: CACCCGUGCAAAAAUGCAGGGGUCUAAAACUGAGCGGAUAACCUCUCUAUGG
RNA 2: GGGAAUGGAUCCACAUCUACGAAUUCGUACCAUAGGAGAGGUUAUCCGCUCACCCGAGAUCGGAAGAGCACACGU
B12: target 1 A20U,C22A (mixed)
RNA 1: CACCCGUGCAAAAAUGCAGGGGUCUAAAACUGAGCGGAUAACCUCUCUAUGG
RNA 2: GGGAAUGGAUCCACAUCUACGAAUUCGUAACUUAGAGAGGUUAUCCGCUCACCGAGAUCGGAAGAGCACACGU
B13: target 1 insG 3' of 9,insA 3' of 8 (mixed)
RNA 1: CACCCGUGCAAAAAUGCAGGGGUCUAAAACUGAGCGGAUAACCUCUCUAUGG
RNA 2: GGGAAUGGAUCCACAUCUACGAAUUCGUACCAUAGAGAGGUUAGUACCGCUCACCGAGAUCGGAAGAGCACACGU
B14: target 1 insG 3' of 18,insG 3' of 1 (mixed)
RNA 1: CACCCGUGCAAAAAUGCAGGGGUCUAAAACUGAGCGGAUAACCUCUCUAUGG
RNA 2: GGGAAUGGAUCCACAUCUACGAAUUCGUACCAUAGGAGAGGUUAUCCGCUCAGCCGAGAUCGGAAGAGCACACGU
B15: target 1 complement block 3-12 (mixed)
RNA 1: CACCCGUGCAAAAAUGCAGGGGUCUAAAACUGAGCGGAUAACCUCUCUAUGG
RNA 2: GGGAAUGGAUCCACAUCUACGAAUUCGUACCAUAGAGAGCAAUAGGCGACACCGAGAUCGGAAGAGCACACGU
B16: target 1 insC 3' of 22,insC 3' of 1 (mixed)
RNA 1: CACCCGUGCAAAAAUGCAGGGGUCUAAAACUGAGCGGAUAACCUCUCUAUGG
RNA 2: GGGAAUGGAUCCACAUCUACGAAUUCGUACCCAUAGAGAGGUUAUCCGCUCACCCGAGAUCGGAAGAGCACACGU
B17: target 1 insU 3' of 15,insA 3' of 13 (mixed)
RNA 1: CACCCGUGCAAAAAUGCAGGGGUCUAAAACUGAGCGGAUAACCUCUCUAUGG
RNA 2: GGGAAUGGAUCCACAUCUACGAAUUCGUACCAUAGAGUAGAGUUAUCCGCUCACCGAGAUCGGAAGAGCACACGU
B18: target 1 insU 3' of 9,insG 3' of 1 (mixed)
RNA 1: CACCCGUGCAAAAAUGCAGGGGUCUAAAACUGAGCGGAUAACCUCUCUAUGG
RNA 2: GGGAAUGGAUCCACAUCUACGAAUUCGUACCAUAGAGAGGUUAUUCCGCUCAGCCGAGAUCGGAAGAGCACACGU
B19: target 1 G12C (mixed)
RNA 1: CACCCGUGCAAAAAUGCAGGGGUCUAAAACUGAGCGGAUAACCUCUCUAUGG
RNA 2: GGGAAUGGAUCCACAUCUACGAAUUCGUACCAUAGAGAGCUUAUCCGCUCACCGAGAUCGGAAGAGCACACGU
B20: target 1 insA 3' of 19,insU 3' of 13 (mixed)
RNA 1: CACCCGUGCAAAAAUGCAGGGGUCUAAAACUGAGCGGAUAACCUCUCUAUGG
RNA 2: GGGAAUGGAUCCACAUCUACGAAUUCGUACCAUAAGAGAGUGUUAUCCGCUCACCGAGAUCGGAAGAGCACACGU
B21: target 1 insG 3' of 6,insG 3' of 3 (mixed)
RNA 1: CACCCGUGCAAAAAUGCAGGGGUCUAAAACUGAGCGGAUAACCUCUCUAUGG
RNA 2: GGGAAUGGAUCCACAUCUACGAAUUCGUACCAUAGAGAGGUUAUCCGGCUGCACCGAGAUCGGAAGAGCACACGU
B22: target 1 insA 3' of 15,insU 3' of 12 (mixed)
RNA 1: CACCCGUGCAAAAAUGCAGGGGUCUAAAACUGAGCGGAUAACCUCUCUAUGG
RNA 2: GGGAAUGGAUCCACAUCUACGAAUUCGUACCAUAGAGAAGGUUUAUCCGCUCACCGAGAUCGGAAGAGCACACGU
B23: target 1 A9C,C22U (mixed)
RNA 1: CACCCGUGCAAAAAUGCAGGGGUCUAAAACUGAGCGGAUAACCUCUCUAUGG
RNA 2: GGGAAUGGAUCCACAUCUACGAAUUCGUAUCAUAGAGAGGUUCUCCGCUCACCGAGAUCGGAAGAGCACACGU

In this data set the target is T1, EsCas13d, nuclease-dead. Kind of data set: crRNA (strand 1, pre-loaded); Mg2+; 40 mM Tris-HCl pH 7.5, 150 mM NaCl, 6 mM MgCl2, 1 mM DTT, 0.1% Tween-20, 0.2 mg/ml BSA; 25 C; 10 min per concentration, then washed. Conditions: tags: His6-TwinStrep-SUMO cleaved; N-terminal SNAP kept (SNAP-Surface 488); label: 3' end held by stalled T7 RNA polymerase.
In turn, B1 returned a Kd of 6.92 ± 0.27 nM.

The molecule B2 came in with a Kd of 31 ± 6 nM. Consider B3, for which the affinity, expressed as Kd, was 19 ± 2.1 nM. This Kd is about 1.6-fold lower than that of the molecule before. The same measure for B4: 20.6 ± 1.9 nM; for B5: 5.5 ± 0.4 nM.

Consider B6, for which the Kd stood at 67 ± 5 nM. The same measure for B7: 76 ± 22 nM; for B8: 11.2 ± 0.6 nM; for B9: 15.3 ± 1.2 nM. In the case of B10, binding was characterised by a dissociation constant (Kd) of 28.9 ± 2.2 nM. The same measure for B11: 52 ± 4 nM. In the case of B12, binding was put at a Kd of 23.9 ± 2.8 nM. In turn, B13 gave a Kd of 19.6 ± 1 nM. Regarding B14, binding was put at a Kd of 55 ± 10 nM.

Take B15: binding was characterised by a dissociation constant (Kd) of 14.4 ± 0.5 nM. The same measure for B16: 17.2 ± 1 nM. The same measure for B17: 10.2 ± 0.7 nM. The same measure for B18: 18.9 ± 2.5 nM; for B19: 8.3 ± 0.7 nM; for B20: 35 ± 13 nM. On to B21, for which the Kd is 7.3 ± 0.5 nM. The same measure for B22: 4.9 ± 0.4 nM. The same measure for B23: 54 ± 12 nM.

By Kd is commonly meant the free concentration of one partner at which half of the binding sites on the other are occupied at equilibrium, for simple one-to-one binding. A low value points to tighter binding.

Source of the values: publication PMC10786891, “Massively parallel profiling of RNA-targeting CRISPR-Cas13d”.
